How the values were obtained:
[1] = system: CCL-20 secreted by human corneal epithelial cells; assay: CCL-20 ELISA under high osmotic pressure; format: cell-based; details: HCEC, 450 mOsM, 5, 10, 20, 50, and 100 ng/ml
Protocol: (§1) In addition, the activity of NFκB that is an important transcription factor in expression of the inflammatory factors was identified by Western blot analysis (FIG. 4B). Preparation of the experiment was performed under the same conditions of those of Cytokine array performed as described above and the ELISA was performed according to the manufacturer's instructions.

[2] = system: NFκB in human corneal epithelial cells; assay: Western blot of NFκB activity under high osmotic pressure; format: cell-based; details: HCEC, 450 mOsM
Protocol: as §1

[3] = system: MUC4 mRNA in human corneal epithelial cells; assay: RT-qPCR of mucin mRNA (MUC4) under high osmotic pressure; format: cell-based; details: HCEC, 450 mOsM, 10 to 200 ng/ml, particularly 50 to 200 ng/ml, 24 hours; compared to the untreated group
Protocol: First, the human corneal epithelial cells (HCECs, 5th passage) were seeded onto 6 wells at a density of […]. After 24 hours, the HCECs were pre-treated with a medium with different osmotic pressures (314 and 450 mOsM). After 48 hours of incubation, the cells were treated with the composition of the present disclosure having different concentrations of rhHAPLN1 (0, 5, 10, 20, 50, 100, and 200 ng/ml) and Cyclosporine A (0.1 μM), as a control drug, for 24 hours. Then, the cells were washed and sampled to perform RT-qPCR (FIG. 5A).
Total mRNA was purified from the HCECs by using a Qiagen kit. A cDNA was synthesized by using the iScript cDNA synthesis kit. Subsequently, RT-qPCR was performed and result data was expressed as relative expression levels (fold) (FIGS. 5B to 5C).

[4] = system: goblet cells present in the conjunctiva; assay: Goblet cells in conjunctiva (PAS staining), mouse dry eye model; format: in vivo, C57BL/6; details: 16th day
Text: On the 16th days from drug treatment, eyes were enucleated and paraffin blocked, and tissue was stained by PAS staining on a prepared slide (FIG. 10A). PAS staining specifically stains goblet cells. Because there are many mucopolysaccharides and mucoproteins in the goblet cells, […] thereof is oxidized by a periodic acid to form an aldehyde, which reacts with a Schiff reagent to be stained in red-purple.
In this regard, the number of goblet cells present in the conjunctiva was measured and quantified (FIG. 10B). As a result, in the dry eye disease model, the number of damaged goblet cells decreased.

[5] = system: CD11 b in lacrimal glands; assay: CD11 b immunofluorescence in lacrimal gland, mouse dry eye model; format: in vivo, C57BL/6; details: after 16 days of drug treatment
Protocol: In this example, expression of CD11 b was identified in lacrimal glands in order to identify in vivo anti-inflammatory effect of the HAPLN1 protein-containing composition of the present disclosure. That is, on the 2nd day after 16 days of drug treatment, eyes were enucleated and paraffin blocked. IHC-IF was performed on a section slide, and expression (green) of CD11 b was identified by using an Anti-CD11 b antibody. FIG. 13B is a graph illustrating quantified expression levels of FIG. 13A (FIG. 13B).

rabbit dry eye model [6] = assay: Corneal fluorescein score, 0.1% benzalkonium chloride-induced dry eye disease model; format: in vivo, New Zealand white rabbits
Protocol: Corneal fluorescein score assay and tear volume assay were respectively performed on eyeballs of rabbits treated with the compositions of Preparation Examples 1, 2, and 3 prepared in Example 7 above by using a 0.1% benzalkonium chloride (BAC)-induced dry eye disease (DED) model.
(§2) One drop (0.05 ml) of 0.1% benzalkonium chloride (BAC) was administered to both eyes of rabbits twice a day (9:00 and 17:00) for 14 days, and then induction of dry eye was identified by examination of eyes, and the rabbits were classified into groups.
(§3) The test substance was dropped into the groups of the rabbit model twice a day (8:30 and 16:30) (Day 15 to 30 (total of 16 days)).
(§4) Anesthesia was induced by intramuscular injection of Xylazine and Ketamine, and then one drop of Alcaine Eye Drop was administered and tear and the eye drop remaining therein were removed by using Weck-cel cellulose spear. After putting STT paper on the lower eyelid, a length of a wet region for 5 minutes was measured (STT-2). In addition, stability of the tear film was tested by measuring tear film break up time (TFBUT, measurement of time taken for the tear film to break down). Furthermore, conditions of the cornea and fluorescent staining were identified by a slit test.

rabbit dry eye model [7] = assay: Tear film break up time (TFBUT), benzalkonium chloride-induced dry eye disease model; format: in vivo, New Zealand white rabbits
Protocol: as §2, §3, §4
In this example, a method of measuring time until black spots appeared at fluorescent stained regions after applying one drop of sodium fluorescein to eyeballs. The black spots may appear within several seconds after blinking and occurs very quickly under the conditions of dry eye disease. That is, stability of the tear film was measured by measuring the tear film break up time (TFBUT, measurement of time taken for the tear film to break down).

rabbit dry eye model [8] = assay: Tear volume assay (STT), benzalkonium chloride-induced dry eye disease model; format: in vivo, New Zealand white rabbits
Protocol: as §2, §3, §4

goblet cells = assay: Goblet cells (PAS staining), rabbit dry eye model; format: in vivo, New Zealand white rabbits
Protocol: Eyes of the rabbits including conjunctiva were enucleated, fixed with a specific fixing solution to be embedded into paraffin, and microsectioned, followed by staining and analysis according to the purpose. In this regard, the eyeballs were stained by hematoxylin & eosin (H & E) staining and detachment of corneal epithelial tissue was analyzed. After PAS staining, distribution of goblet cells in the conjunctiva was measured. In addition, after conjunctiva epithelium indentation (impression cytology), PAS staining was performed and distribution of goblet cells was measured.
After 15 days of eye examination, on the 1st day after 16 days of drug treatment, eyes were enucleated, subjected to histopathological analysis, and paraffin blocked. Tissue was stained in a section slide by PAS staining (FIG. 17A). The number of goblet cells in a range of 200 μm^2 was measured and quantified (FIG. 17b).

B1: hyaluronan and proteoglycan link protein 1 (HAPLN1) (protein, listed as Homo sapiens)
chain: MKSLLLLVLISICWADHLSDNYTLDHDRAIHIQAENGPHLLVEAEQAKVFSHRGGNVTLPCKFYRDPTAFGSGIHKIRIKWTKLTSDYLKEVDVFVSMGYHKKTYGGYQGRVFLKGGSDSDASLVITDLTLEDYGRYKCEVIEGLEDDTVVVALDLQGVVFPYFPRLGRYNLNFHEAQQACLDQDAVIASFDQLYDAWRGGLDWCNAGWLSDGSVQYPITKPREPCGGQNTVPGVRNYGFWDKDKSRYDVFCFTSNFNGRFYYLIHPTKLTYDEAVQACLNDGAQIAKVGQIFAAWKILGYDRCDAGWLADGSVRYPISRPRRRCSPTEAAVRFVGFPDKKHKLYGVYCFRAYN
expression levels of the inflammatory factor CCL20 (ELISA) [1]: relatively lower than those of the HAPLN1 protein-untreated groups
phosphorylation of NFκB [2]: reduced
expression level of MUC4 (FIG. 5B) [3]: significantly increased
number of goblet cells compared with normal Sham control [4]: equivalent to that of the normal Sham control
number of goblet cells compared to the dry eye model ([4]; regardless of the concentration): significantly increased
expression level of CD11 b compared with Cyclosporine A [5]: reduced the expression level of CD11 b more than Cyclosporine A
expression of CD11 b in lacrimal glands [5]: decreased
reduction of CFS level compared with Restasis (rabbit dry eye model [6]; after 10 days): more than by Restasis
CFS level (rabbit dry eye model [6]; eye drop 0.5, 5, 50 μg/ml b.i.d., regardless of the concentration): consistently decreased
increase of TFBUT compared with Restasis (rabbit dry eye model [7]; after 10 days, regardless of the concentration of HAPLN1): more than by Restasis
tear film break up time (TFBUT) (rabbit dry eye model [7]; eye drop b.i.d., dry eye model less than 10 seconds): continuously increased
tear film break up time (TFBUT) (rabbit dry eye model [7]; high concentration (50 μg/ml)): ≥ 30 s
tear volume compared with Restasis (rabbit dry eye model [8]; after 10 days): increased the tear volume far more than Restasis
tear volume (rabbit dry eye model [8]; concentration-dependent, from the 5th day, more than Restasis): consistently increased
number of goblet cells compared to the dry eye disease model (goblet cells; after 16 days of drug treatment, in proportion to the concentration): significantly increased
number of goblet cells compared to Restasis (goblet cells; high concentration (50 μg/ml)): far more increased

From patent US20250152663A1, “COMPOSITION FOR PREVENTION OR TREATMENT OF DRY EYE DISEASE COMPRISING HAPLN1” (HAPLNSCIENCE INC., priority 2021, published 2025)
